Key:
RyR2 [1] = biological target: T1, RyR2 (Rattus norvegicus, UniProt B0LPN4); test: Fluorescent FKBP12.6 binding at the Z-line of permeabilized myocytes; set-up: These fluorescent proteins were added to saponin-permeabilized myocytes with or without pre-equilibration with saturating DPc10 concentration; endogenous in cells; host or cells: saponin-permeabilized rat ventricular myocytes
Procedure: These fluorescent proteins were added to saponin-permeabilized myocytes with or without pre-equilibration with saturating DPc10 concentration. […] We also did this with high [CaM] (500 nmol/L) that saturates RyR2 with CaM under control conditions (without DPc10; FIG. 17C). […] To test whether DPc10 and CaM bind at the same or nearby RyR2 sites, we measured FRET between CaM and DPc10.
FKBP12.6 can bind to and stabilize RyR2 channel gating, but details are controversial (Bers et al., Circ Res. 2012; 110:796-799). We measured the effect of H2O2 on FKBP12.6-RyR2 binding affinity in saponin-permeabilized myocytes using F-FKBP (Yang et al., Circ Res. 2014; 114:295-306; Cornea et al., Proc Natl Acad Sci USA. 2009; 106:6128-6133; Guo et al., Circ Res. 2010; 106:1743-1752; Guo et al., Biophys J. 2011; 101:2170-2177; Cornea et al., J Biol Chem. 2010; 285:19219-19226). […] We used 1 nmol/L F-FKBP (the its Kd) (Guo et al., Circ Res. 2010; 106:1743-1752), because at half-saturation it would be very sensitive to either an increase or decrease in RyR2 binding.
Target sequence in this assay (B0LPN4 whole entry): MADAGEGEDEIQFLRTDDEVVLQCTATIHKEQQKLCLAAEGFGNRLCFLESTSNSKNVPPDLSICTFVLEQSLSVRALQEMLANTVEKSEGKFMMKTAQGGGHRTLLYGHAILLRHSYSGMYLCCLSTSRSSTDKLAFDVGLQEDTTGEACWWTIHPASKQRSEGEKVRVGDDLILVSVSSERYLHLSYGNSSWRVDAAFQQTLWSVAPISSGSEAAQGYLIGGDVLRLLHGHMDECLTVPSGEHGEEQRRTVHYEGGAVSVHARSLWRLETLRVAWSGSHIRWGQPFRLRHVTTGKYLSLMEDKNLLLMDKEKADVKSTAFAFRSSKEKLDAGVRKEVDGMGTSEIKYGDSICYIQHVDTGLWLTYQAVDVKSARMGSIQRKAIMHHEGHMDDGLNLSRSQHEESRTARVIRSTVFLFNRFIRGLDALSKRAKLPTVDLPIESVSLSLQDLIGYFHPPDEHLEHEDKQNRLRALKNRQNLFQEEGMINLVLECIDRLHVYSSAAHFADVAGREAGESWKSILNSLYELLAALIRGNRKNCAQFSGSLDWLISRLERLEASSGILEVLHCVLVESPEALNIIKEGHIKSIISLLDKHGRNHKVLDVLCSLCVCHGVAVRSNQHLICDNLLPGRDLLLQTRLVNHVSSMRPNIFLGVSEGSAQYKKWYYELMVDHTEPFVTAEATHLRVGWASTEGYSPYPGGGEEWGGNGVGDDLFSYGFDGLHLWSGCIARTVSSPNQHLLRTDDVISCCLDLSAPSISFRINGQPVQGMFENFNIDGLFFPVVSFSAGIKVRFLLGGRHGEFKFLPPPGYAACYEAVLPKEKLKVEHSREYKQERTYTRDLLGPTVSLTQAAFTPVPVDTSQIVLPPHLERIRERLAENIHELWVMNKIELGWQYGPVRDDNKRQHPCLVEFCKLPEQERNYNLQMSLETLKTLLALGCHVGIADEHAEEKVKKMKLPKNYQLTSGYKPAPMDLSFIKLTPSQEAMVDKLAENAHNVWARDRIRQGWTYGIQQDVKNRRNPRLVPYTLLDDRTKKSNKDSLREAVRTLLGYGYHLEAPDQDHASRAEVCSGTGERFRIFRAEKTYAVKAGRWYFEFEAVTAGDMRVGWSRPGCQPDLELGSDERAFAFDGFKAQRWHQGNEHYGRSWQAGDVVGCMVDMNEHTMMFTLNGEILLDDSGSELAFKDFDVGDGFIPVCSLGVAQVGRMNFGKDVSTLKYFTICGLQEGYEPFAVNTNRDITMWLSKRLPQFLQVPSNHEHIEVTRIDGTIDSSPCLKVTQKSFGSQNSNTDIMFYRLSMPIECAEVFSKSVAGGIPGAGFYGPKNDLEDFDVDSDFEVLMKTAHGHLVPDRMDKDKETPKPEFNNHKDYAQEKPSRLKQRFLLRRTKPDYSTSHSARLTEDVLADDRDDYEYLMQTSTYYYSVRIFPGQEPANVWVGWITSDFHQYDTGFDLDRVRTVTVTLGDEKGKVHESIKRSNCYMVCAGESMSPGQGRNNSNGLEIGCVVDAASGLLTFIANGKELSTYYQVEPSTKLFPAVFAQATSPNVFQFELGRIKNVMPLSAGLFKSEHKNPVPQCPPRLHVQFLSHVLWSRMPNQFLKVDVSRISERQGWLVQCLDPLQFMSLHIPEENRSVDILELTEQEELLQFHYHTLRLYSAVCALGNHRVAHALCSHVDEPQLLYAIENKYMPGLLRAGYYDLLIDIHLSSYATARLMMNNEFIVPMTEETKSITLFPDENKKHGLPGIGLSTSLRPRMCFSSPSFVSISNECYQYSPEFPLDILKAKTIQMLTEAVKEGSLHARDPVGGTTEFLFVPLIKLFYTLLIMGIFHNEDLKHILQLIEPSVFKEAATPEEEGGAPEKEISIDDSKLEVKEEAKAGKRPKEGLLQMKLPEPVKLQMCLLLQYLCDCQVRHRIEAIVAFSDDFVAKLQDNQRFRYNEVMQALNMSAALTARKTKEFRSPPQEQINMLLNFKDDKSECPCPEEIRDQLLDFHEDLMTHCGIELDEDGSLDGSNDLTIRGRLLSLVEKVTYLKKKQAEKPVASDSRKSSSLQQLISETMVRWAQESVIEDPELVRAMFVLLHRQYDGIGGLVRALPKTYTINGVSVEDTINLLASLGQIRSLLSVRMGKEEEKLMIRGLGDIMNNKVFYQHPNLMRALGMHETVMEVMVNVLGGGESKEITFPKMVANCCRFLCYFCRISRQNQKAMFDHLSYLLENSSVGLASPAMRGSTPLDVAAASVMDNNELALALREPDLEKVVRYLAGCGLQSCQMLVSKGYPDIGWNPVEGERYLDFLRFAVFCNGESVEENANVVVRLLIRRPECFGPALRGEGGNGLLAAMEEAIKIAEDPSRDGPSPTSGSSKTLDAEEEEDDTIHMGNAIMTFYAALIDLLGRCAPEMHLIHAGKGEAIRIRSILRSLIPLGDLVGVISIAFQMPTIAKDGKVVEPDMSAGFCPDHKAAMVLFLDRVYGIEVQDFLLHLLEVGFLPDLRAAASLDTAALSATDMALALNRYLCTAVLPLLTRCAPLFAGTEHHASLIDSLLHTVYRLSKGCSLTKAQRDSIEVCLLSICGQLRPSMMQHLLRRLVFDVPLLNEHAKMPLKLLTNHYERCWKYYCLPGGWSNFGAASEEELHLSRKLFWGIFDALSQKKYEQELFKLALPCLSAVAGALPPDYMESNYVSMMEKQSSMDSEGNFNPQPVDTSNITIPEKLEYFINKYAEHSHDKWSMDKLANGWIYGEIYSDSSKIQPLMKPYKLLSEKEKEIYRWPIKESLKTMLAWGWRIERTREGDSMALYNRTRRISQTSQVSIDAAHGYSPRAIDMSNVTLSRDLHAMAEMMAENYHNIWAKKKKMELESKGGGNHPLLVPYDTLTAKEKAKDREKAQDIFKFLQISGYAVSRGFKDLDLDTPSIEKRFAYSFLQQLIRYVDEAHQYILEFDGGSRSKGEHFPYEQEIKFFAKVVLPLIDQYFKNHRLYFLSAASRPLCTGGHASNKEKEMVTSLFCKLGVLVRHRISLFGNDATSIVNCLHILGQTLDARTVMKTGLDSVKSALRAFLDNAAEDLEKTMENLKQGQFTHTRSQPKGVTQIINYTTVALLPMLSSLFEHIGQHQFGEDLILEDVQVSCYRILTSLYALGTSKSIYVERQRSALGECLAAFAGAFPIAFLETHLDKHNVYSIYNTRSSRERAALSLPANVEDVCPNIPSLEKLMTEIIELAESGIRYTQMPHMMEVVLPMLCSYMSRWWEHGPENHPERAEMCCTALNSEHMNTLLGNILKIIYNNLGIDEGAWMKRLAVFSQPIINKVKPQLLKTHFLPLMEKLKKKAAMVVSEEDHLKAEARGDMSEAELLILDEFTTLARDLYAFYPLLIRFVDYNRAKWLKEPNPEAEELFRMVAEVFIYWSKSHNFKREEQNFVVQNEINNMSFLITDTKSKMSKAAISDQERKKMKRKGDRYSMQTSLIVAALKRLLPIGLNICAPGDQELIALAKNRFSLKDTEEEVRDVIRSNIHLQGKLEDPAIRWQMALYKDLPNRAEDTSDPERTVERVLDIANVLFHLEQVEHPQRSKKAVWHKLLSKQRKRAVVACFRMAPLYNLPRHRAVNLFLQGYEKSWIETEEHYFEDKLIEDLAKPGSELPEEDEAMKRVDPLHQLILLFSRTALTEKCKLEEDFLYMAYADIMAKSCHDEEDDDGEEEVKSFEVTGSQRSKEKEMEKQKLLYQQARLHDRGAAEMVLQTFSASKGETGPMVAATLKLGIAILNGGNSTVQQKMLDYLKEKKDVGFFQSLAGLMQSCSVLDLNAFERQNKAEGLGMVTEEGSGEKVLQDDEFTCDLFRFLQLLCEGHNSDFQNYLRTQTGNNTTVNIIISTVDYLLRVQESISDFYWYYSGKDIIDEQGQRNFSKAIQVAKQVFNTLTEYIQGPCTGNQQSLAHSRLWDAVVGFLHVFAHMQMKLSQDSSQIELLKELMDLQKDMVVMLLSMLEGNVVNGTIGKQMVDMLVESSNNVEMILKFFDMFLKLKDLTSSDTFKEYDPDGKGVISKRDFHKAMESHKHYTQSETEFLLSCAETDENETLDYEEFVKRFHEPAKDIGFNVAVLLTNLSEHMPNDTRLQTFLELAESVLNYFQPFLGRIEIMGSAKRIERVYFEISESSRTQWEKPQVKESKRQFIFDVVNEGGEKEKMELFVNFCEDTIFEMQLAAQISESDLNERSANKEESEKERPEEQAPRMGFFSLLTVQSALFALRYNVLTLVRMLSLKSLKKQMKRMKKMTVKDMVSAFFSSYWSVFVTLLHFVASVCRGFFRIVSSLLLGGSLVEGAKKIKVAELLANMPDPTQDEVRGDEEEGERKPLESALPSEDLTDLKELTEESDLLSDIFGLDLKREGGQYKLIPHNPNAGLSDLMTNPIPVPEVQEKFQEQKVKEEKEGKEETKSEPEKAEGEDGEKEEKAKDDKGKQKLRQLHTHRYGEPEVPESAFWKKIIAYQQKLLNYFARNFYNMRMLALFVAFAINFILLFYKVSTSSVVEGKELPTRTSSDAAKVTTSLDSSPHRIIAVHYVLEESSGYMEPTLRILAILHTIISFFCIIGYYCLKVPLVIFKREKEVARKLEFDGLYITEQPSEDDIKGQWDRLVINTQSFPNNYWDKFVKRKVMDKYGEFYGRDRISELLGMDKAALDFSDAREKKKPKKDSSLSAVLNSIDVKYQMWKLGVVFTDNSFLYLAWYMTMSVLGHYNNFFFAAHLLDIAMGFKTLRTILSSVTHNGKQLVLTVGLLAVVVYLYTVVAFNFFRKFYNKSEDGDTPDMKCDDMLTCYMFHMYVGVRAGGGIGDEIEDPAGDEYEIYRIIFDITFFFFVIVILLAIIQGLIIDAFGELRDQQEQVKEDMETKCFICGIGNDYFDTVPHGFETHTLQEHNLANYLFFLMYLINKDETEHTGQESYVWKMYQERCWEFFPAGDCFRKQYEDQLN
Target sequence in this assay (P68106 with tags, fused parts or gaps T15C/C23A/C77I partner): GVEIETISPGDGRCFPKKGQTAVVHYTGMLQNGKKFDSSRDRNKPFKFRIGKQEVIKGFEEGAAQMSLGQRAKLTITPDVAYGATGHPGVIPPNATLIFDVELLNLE

[2] = system: permeabilized cardiomyocytes; test: Ca2+ sparks and SR Ca2+ content in permeabilized myocytes; assay type: cell-based, rat; settings: 5 μmol/L DPc10 with 1 μmol/L CaM or 100 nmol/L FKBP12.6
Procedure: Myocytes were permeabilized with saponin (50μg/mL) for 60 seconds and placed in internal solution composed of EGTA 0.5 mmol/L; HEPES 10 mmol/L; Kaspartate 120 mmol/L; ATP 5 mmol/L; free MgCl2 1 mmol/L, reduced glutathione 10 mmol/L; and free [Ca2+] 50nmol/L (calculated using MaxChelator), creatine phosphokinase 5 U/mL, phosphocreatine 10 mmol/L, dextran 4% Fluo-4 0.025 mmol/L, pH 7.2. Ca2+sparks were recorded by a laser scanning confocal microscope (RADIANCE2000™ MP, Bio-Rad, UK) as previously described (Li et al., Circ Res, 2002; 90:309-316). Fluo-4 was excited at 488 nm and emission was recorded using 500/530 nm bandpass filter. To assess SR Ca2+content, caffeine (15 mmol/L) was rapidly perfused. Ca2+spark were analyzed as using SparkMaster (Picht et al., Am J Physiol Cell Physiol, 2007; 293:C1073-C1081).
Next, we asked whether RyR2 is activated by DPc10 and whether FKBP12.6 or CaM can prevent this. We assessed Ca^2+ sparks in permeabilized myocytes perfused with internal solution containing 50 nmol/L free Ca^2+ plus 1 μmol/L autocamtide-2-related inhibitory peptide (to inhibit CaMKII activity). Line-scan images were recorded after 3-hour incubations under control conditions and in the presence of 5 μmol/L DPc10, with or without 1 μmol/L CaM or 100 nmol/L FKBP12.6 (FIG. 14D).

RyR2 [3] = biological target: T1, RyR2; test: F-DPc10 wash-in and washout kinetics at the myocyte Z-line; assay type: binding; set-up: endogenous in cells; host or cells: saponin-permeabilized adult rat ventricular myocytes
Procedure: To characterize DPc10-binding kinetics at Z-lines, we performed F-DPc10 wash-in (500 nmol/L) and washout experiments in permeabilized myocytes (FIG. 10A). Association (τwash-in=79.0±3.2 minutes) and dissociation (τwashout=149.8±4.4 minutes) were very slow compared with similar FKBP12.6 measurements (Guo et al., Circ Res, 2010; 106:1743-1752). From the wash-in/washout measurements, we calculated the association and dissociation rates constants, kon and koff, respectively, according to the following equation: kwash-in=[F-DPc10]kon+koff where kwashout≈koff and k=1/τ (s^−1). Accordingly, kon=202±20 (L mol^−1 s^−1) and koff=0.11±0.01 (10^−3 s^−1). […] We repeated this kinetic analysis using FRET between FKBP12.6 and DPc10, thus assessing the RyR2-specific DPc10 binding (FIG. 11A AND 11B). […] Based on these kinetic and affinity analyses, we infer that most of the Z-line-specific DPc10 binding is to RyR2. This is also consistent with Bmax, which would imply ≈1 DPc10 per RyR2 monomer.
We were intrigued by the slow kwash-in and conducted measurements to further understand the basis of this slow association. We tested the hypothesis that at resting [Ca^2+]i, DPc10 access to its RyR2 binding site is sterically hindered. If the N-terminal and central domains are tightly zipped to each other, then this interaction may occlude the DPc10-binding site on the RyR2, thus limiting the kon for DPc10. Alternatively, a limiting factor may be the rate at which DPc10 adopts a conformation that can bind to RyR2. To discern between these mechanisms, we determined the effect of [F-DPc10] on τwash-in. If the small fraction of DPc10 in the right conformation limits binding rate, then τwash-in should be faster at higher [F-DPc10], according to Equation. […] Instead, a 10-fold increase in [F-DPc10] had no significant effect on the τwash-in, although it did increase Bmax (FIG. 10B). The same was seen when using FKBP12.6-DPc10 FRET to assess τwash-in with 0.5 vs 5 μmol/L HF647-DPc10 (FIG. 12A AND 12B).
In our working model, under resting conditions, the RyR2 closed state may be stabilized by the interaction between the N-terminal and central domain in the zipped state. We hypothesized that conditions that promote RyR2 opening might enhance the rate of unzipping and accelerate τwash-in for F-DPc10. To test this, we first monitored F-DPc10 wash-in at elevated Ca^2+ (500 nmol/L). However, the 13% faster mean τwash-in was not significant (FIG. 13A). […] Thus, we preincubated myocytes with ryanodine (100 μmol/L) plus caffeine ([…]), which are known to favor long RyR2 openings and were reported to cause RyR2 domain unzipping in HEK293 cells (Liu et al., J Cell Sci, 2010; 123: 1775-1784). Ryanodine+caffeine produced a 21% faster τwash-in (P=0.002; FIG. 13B). However, the most significant effect was seen after presaturating RyR2 with NF-DPc10 (and then NF-DPc10 washout with F-DPc10 present; FIG. 13A). […] Assuming that koff of NF-DPc10 is the same as for F-DPc10 and using Equation, the kon is increased by 3.2-fold by unzipping as a result of prebinding of NF-DPc10 to the RyR2. Our working hypothesis is that the RyR2 open state may increase the probability of an RyR2 shifting to the unzipped state and may allow faster F-DPc10 wash-in. It also seems that the RyR2 open state (favored by caffeine-ryanodine) differs from the unzipped state (bound with DPc10).
Both FKBP12.6 and CaM bind to the RyR2 and can reduce channel opening, which might alter DPc10 binding. […] Neither CaM nor FKBP12.6 pretreatment altered M-line F-DPc10 fluorescence (FIG. 15). […] We infer that CaM stabilizes the domain interaction between N-terminal and central domains in the zipped state and thereby may reduce DPc10 access to its binding site. To test for direct CaM-DPc10 interaction, we performed control FRET measurements between donor-labeled CaM and acceptor-labeled DPc10 in solution in the absence of RyR. The maximal FRET efficiency (<1%) ruled out direct CaM-DPc10 interaction. […]
Target sequence in this assay (B0LPN4 whole entry): as the sequence (B0LPN4 whole entry) above

RyR2 [4] = biological target: T1, RyR2; set-up: These fluorescent proteins were added to saponin-permeabilized myocytes with or without pre-equilibration with saturating DPc10 concentration; endogenous in cells; host or cells: saponin-permeabilized rat ventricular myocytes; settings: cited from earlier work
Target sequence in this assay (B0LPN4 whole entry): as above
Target sequence in this assay (P68106 with tags, fused parts or gaps T15C/C23A/C77I partner): as the sequence (P68106 with tags, fused parts or gaps T15C/C23A/C77I partner) above

RyR1 = RyR1 (Homo sapiens, UniProt P21817); settings: cited from earlier work
RyR2 [5] = biological target: RyR2 (Homo sapiens, UniProt Q92736); settings: cited from earlier work
[6] = saturation of RyR2 with CaM 1 μmol/L or FKBP12.6 100 nmol/L, F-DPc10 5 μmol/L

| Substance | Bmax for FKBP12.6, reanalyzed using FZ-FM (RyR2 [1]) [µmol/L] | effect on CaSpF activation by DPc10 [2] | effect on F-DPc10 binding (RyR2 [3]; 200-minute incubation with F-DPc10, pretreatment CaM 1 μmol/L or FKBP12.6 100 nmol/L) | effect on Bmax for F-DPc10 (RyR2 [3]; [6]) | effect on τwash-in of F-DPc10 (RyR2 [3]; [6]) | Bmax of FKBP12.6, previous measurements (RyR2 [4]; cell average fluorescence) | Kd (RyR2 [4]; read-out: Kd of FKBP12.6 for RyR2) [nM] | lower binding affinity (RyR1) [fold] | lower affinity than FKBP12.6 (RyR2 [5]) [fold] |
| --- | --- | --- | --- | --- | --- | --- | --- | --- | --- |
| FKBP12.6: FK506-binding protein 12.6 | 1.3 | only slightly decreased | did not alter | did not alter | did not alter | ≈ 1 μmol/L | ~1 |  |  |
| FKBP12: FK506-binding protein isoform FKBP12 |  |  |  |  |  |  |  | ~4 | ~100 |
